Measured values taken from patent US8026342B2, “Compositions and methods for binding sphingosine-1-phosphate” (Lpath, Inc., priority 2006, dated 2011).

B1: LT1002: murine anti-S1P monoclonal antibody, IgG1 kappa, from hybridoma clone 306D326.26 (antibody, listed as Mus sp., V domains shown)
VH: QAHLQQSDAELVKPGASVKISCKVSGFIFIDHTIHWMKQRPEQGLEWIGCISPRHDITKYNEMFRGKATLTADKSSTTAYIQVNSLTFEDSAVYFCARGGFYGSTIWFDFWGQGTTLTVS
VL: ETTVTQSPASLSMAIGEKVTIRCITTTDIDDDMNWFQQKPGEPPNLLISEGNILRPGVPSRFSSSGYGTDFLFTIENMLSEDVADYYCLQSDNLPFTFGSGTKLEIK

Tests used:
[1] = test system: CNV lesions; assay: CNV animal model of AMD, murine vs humanized mAbs (Example 17); format: in vivo, mice; conditions: for Percent inhibition of lesion size: 14 days post laser
Method: The humanized antibody variants and the murine antibody were compared for their ability to inhibit neo-vascularization in the CNV animal model of AMD as shown in FIG. 13. […] Mice were sacrificed 14 days post laser surgery. Control mice were treated with aqueous buffer (PBS) or an isotype-matched non-specific antibody. Three of the humanized variants inhibited angiogenesis essentially equivalently to the murine antibody as assessed by measurement of CNV area. CNV lesion volumes are represented as means±SEM.
For the induction of CNV, mice were anesthetized with a mixture of ketamine (14 mg/kg) and xylazine (30 mg/kg) in sterile saline administered intraperitoneally at a dose of 5 μL per 20 g of body weight. Their pupils were then dilated with one drop each of ophthalmic tropicamide (0.5%) and phenylephrine (2.5%). An argon green ophthalmic laser (Oculight GL 532 nm, Iridex Corporation, Mountain View, Calif.) coupled to a slit lamp set to deliver a 100 msec pulse at 150 mW with a 50 μm spot size will then be used to rupture Bruch's membrane in three quadrants of the right eye located approximately 50 μm from the optic disc at relative 9, 12 and 3 o'clock positions. The left eye served as uninjured control in all cases.
The morphometric and volumetric CNV lesions were measured as follows. Two weeks after laser induction of CNV, the animals were euthanized by overdose of ketamine-xylazine mixture, then undergo whole body perfusion via cardiac puncture with 6 ml 4% paraformaldehyde in PBS, pH 7.5, (fixative) as previously described (Sengupta et al., 2003). The eyes will then be enucleated, punctured with a 27 g needle 1 mm posterior to the limbus, and immersed in fixative for 1 hr at room temperature, then washed 2× by immersion in PBS for 30 min. The eyes will then be dissected to isolate the posterior segment consisting of the retinal pigment epithelium, the choriocapillaris and the sclera. This tissue was then permeabilized and reacted with rhodamine-conjugated R. communis agglutinin I (Vector Laboratories, Burlingame, Calif.) to detect the CNV lesion as previously described (Sengupta et al., 2003; Sengupta et al., 2005). […]
Captured digital images were evaluated morphometrically using ImageJ software (Research Services Branch, National Institutes of Health, Bethesda, Md.). Images were split into separate RGB channels for analysis of the red and green channels as follows: 1) a calibration for the specific objective and microscope was applied to set the pixel-to-length ratio; 2) a threshold was applied using the Otsu algorithm; 3) images will be made binary; 4) a region-of-interest (ROI) was outlined to include the entire lesion area; 5) a particle analysis was performed to quantify the pixel area above the threshold level within the ROI. […]

[2] = test system: CNV lesions; assay: Laser-induced rupture of Bruch's membrane, murine CNV model (Example 4); format: in vivo, C57BL6/J mice; conditions: 0.5 μg
Method: Female C57BL6/J mice were subjected to laser-induced rupture of Bruch's membrane and administered either 0.5 μg of Sphingomab or an isotype-matched non-specific (NS) antibody diluted in 2 μl of physiological saline. Mice were sacrificed 14 and 28 days after laser rupture.
To induce CNV lesions, the pupils were dilated with ophthalmic tropicamide (0.5%) and phenylephrine (2.5%). A coverslip was placed on the eye. An Oculight GL 532 nm (Iridex Corporation, Mountain View, Calif.) coupled to a slit lamp set to deliver a 100 msec pulse at 150 mW with a 50 μm spot size was used to rupture Bruch's membrane in three quadrants of the right eye located approximately 50 μm from the optic disc at relative 9, 12 and 3 o'clock positions. The left eye served as an uninjured control in all cases. Any lesion not associated with a vapor bubble or lesions that became confluent were excluded from analysis.
To measure CNV lesion size, choroidal flatmounts of the sclera-choroid-RPE complex were prepared and stained for vasculature (R. communis agglutinin I; red) and pericytes (CD 140b; green). […]
To assess collagen deposition, the sclera-choroid-RPE complex was stained with Masson's Trichrome. […] Approximately 30 sections per lesion were evaluated. Quantitation of the volume of collagen deposition was calculated in the same manner as described for CNV lesion volume.

[3] = 28-day toxicity and toxicokinetic study of LT1002 in mice; format: in vivo; conditions: 28 days
Method: The purpose of this study was to determine the toxicity and toxicokinetic profile of the murine anti-S1P monoclonal antibody, LT1002, following daily administration to C57/BL6 mice. The study was conducted by an independent contract laboratory organization, LAB Research, Inc. The LT1002 dosing solutions were administered for 28 consecutive days to animals in each group by bolus intravenous injection via the tail vein (Days 1-14) and then by bolus intraperitoneal injection (Days 15-28), over a period of approximately 0.5-1.0 minute. The treated group animals were dosed with LT1002 at 30, 75 or 200 mg/kg (n=6 per group) and compared to animals treated with PBS as a saline (vehicle) control group.
During the study, animals were monitored for effects on mortality, clinical condition, body weight and food consumption. Blood samples were collected from a subgroup of animals at necropsy for assessment of hematology, coagulation and clinical chemistry. Study animals were euthanized and subjected to a necropsy examination. Selected organs were weighed and a full list of tissues was retained. A histopathology examination was performed on the full tissue list from all control and high dose animals (200 mg/kg/day) and all abnormalities, while target organs were examined on lower dose groups. Blood samples were collected from the toxicokinetic animals (3 animals/sex/group/time point) on Days 1, 14 and 28 and the animals were euthanized and discarded without examination.

[4] = 0.5 ug intravitreal, Day 0 and Day 6

Molecule	inhibition of neovascularization (CNV area/volume), qualitative [1, 4]	Percent inhibition of lesion size [1, 4]	inhibition compared to non-specific antibody control ([1]; p<0.05)	choroidal neovascularization ([2]; 14 and 28 days after laser rupture)	fibrosis associated with CNV lesion formation ([2]; 28 days after laser rupture)	average lymphocyte counts (+/-SD) ([3]; 30 mg/kg daily)	average lymphocyte counts (+/-SD) ([3]; 75 mg/kg daily)	average lymphocyte counts (+/-SD) ([3]; 200 mg/kg daily)
LT1009: humanized anti-S1P IgG1/kappa mAb with Cys to Ala in HCDR2, light chain with 5 backmutations; SEQ ID NO: 31/32	markedly suppressed neovascularization	~99%	significant inhibition	–	–	–	–	–
B1	–	approximately 80%	–	dramatically attenuates	significantly reduces	0.856+/−0.426 10^9 cells/L	0.902+/−0.269 10^9 cells/L	0.638+/−0.262 10^9 cells/L
